Results published in patent US20240287172A1 (SCIRHOM, published 2024).
Where a chain is given by its changes, count along the chain named.

Legend:
[1] = biological target: T1, hiR2-FL-D592A-T7 (human, UniProt Q6PJF5 1-856); test: FACS on MEF-DKO cells expressing the variant, 3 µg/ml antibody
T1 sequence: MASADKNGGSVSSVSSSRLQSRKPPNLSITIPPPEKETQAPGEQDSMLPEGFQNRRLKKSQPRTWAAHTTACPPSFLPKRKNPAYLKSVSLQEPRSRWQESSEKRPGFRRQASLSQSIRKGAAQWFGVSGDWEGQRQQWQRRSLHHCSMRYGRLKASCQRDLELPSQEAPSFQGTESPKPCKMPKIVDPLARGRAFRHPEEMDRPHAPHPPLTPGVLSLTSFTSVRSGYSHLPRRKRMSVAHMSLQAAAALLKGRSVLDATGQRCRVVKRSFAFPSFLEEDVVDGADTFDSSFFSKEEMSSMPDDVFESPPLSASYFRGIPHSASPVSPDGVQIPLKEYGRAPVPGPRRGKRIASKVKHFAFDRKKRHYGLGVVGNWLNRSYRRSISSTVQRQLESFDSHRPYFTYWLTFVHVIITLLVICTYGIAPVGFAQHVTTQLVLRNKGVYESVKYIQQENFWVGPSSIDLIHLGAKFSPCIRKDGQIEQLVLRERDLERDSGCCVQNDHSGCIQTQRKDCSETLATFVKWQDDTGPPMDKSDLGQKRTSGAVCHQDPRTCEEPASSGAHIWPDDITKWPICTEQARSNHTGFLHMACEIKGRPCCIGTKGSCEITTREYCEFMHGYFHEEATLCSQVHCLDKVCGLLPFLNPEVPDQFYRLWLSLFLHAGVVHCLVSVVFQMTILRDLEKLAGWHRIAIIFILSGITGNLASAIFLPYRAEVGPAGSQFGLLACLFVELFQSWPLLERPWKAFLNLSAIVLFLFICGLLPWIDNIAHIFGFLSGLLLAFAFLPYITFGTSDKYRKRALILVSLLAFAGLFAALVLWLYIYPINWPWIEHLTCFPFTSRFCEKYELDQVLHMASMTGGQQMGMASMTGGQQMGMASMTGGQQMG
Summary of the method: (§1)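 Cells stained with purified antibody at 3 μg/ml for 1 h on ice, then with PE-conjugated goat anti-mouse IgG F(ab′)2 (1:100) for 1 h on ice in the dark. Binding read by flow cytometry; buffer-only staining as control.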

[2] = biological target: T2, hiR2-FL-K542A-T7 (human, UniProt Q6PJF5 1-856); test: as above
T2 sequence: T1 sequence with K542A, A592D
Summary of the method: as §1

B1: antibody 48 (antibody, V domains shown)
VH: QVQLQQSGTELVRPGTSVKVSCKASGYAFTNYLIEWVKQRPGQGLEWIGVINPGSGFTKYNEKFKGKATLTADKSSSTVYMHLSSLTSEDSAVYFCARGLYRAMDYWGQGTSVTVSS
VL: DIQMTQSPASQSASLGESVTITCLASQTIATWLAWYQQKPGKSPQLLIYGATTLADGVPSRFSGGGSGTKFSFKISSLQAEDFVSYYCQQLYSTPYTFGGGTKLEIK
notes: mouse IgG, kappa light chain; also called clone #48; purified antibody 48
- loss of binding vs wild type [1]: ≥ 60%

B2: antibody 50 (antibody, V domains shown)
VH: B1 VH with T9A, T16A, T30S, V79A, H82Q
VL: B1 VL with A30G, G50A, T52A, T53S, S85N, L91I
notes: mouse IgG, kappa light chain; also called clone #50; purified antibody 50
- loss of binding vs wild type [1]: ≥ 60%

B3: antibody 16 (antibody, V domains shown)
VH: QVTLKESGPGILQPSQTLSLTCSFSGFSLSTFALGVGWIRQPSGRGLEWLAHIWWDDDKYYNPALKSRLTISKDTSKNHVFLKIANVDTADTATYYCARITTYYYGMDYWGQGTSVTVSS
VL: DIVLSQSPATLSVTPGDSVSLFCRASQSIGNHLHWYQQESHASPRLLIKYASQSISGIPSRFSGSGSGTDFTLSINSVETEDFGMYFCQQSYNWPLTFGAGTKLELK
notes: mouse IgG, kappa light chain; also called clone #16; purified antibody 16
- loss of binding vs wild type [2]: ≥ 30%

B4: antibody 3 (antibody, V domains shown)
VH: QVTLKESGPGILQPSQTLSLTCSFSGFSLTTFAMGIGWVRQPSGKGLEWLAHIWWDGEKYNNPVLKSRLTISKDTSKNQVFLRIANVDTPDTATYYCARISSIYYIIDNWGQGTSVTVSS
VL: B3 VL with S5T, D17H, F22S, G30S, H32N, Q38K, E39K, A42E, A51V
notes: mouse IgG, kappa light chain; also called clone #3; purified antibody 3
- loss of binding vs wild type [2]: ≥ 60%
